Measured values published in patent US20100159032A1.

What was measured:
[1] = target: Gln^3-Aβ(3-21)a, Gln^3-amyloid β-peptide(3-21)a (Artificial Sequence)
[2] = target: Gln^3-Aβ(3-40), Gln^3-amyloid β-peptide(3-40) (Artificial Sequence)
[3] = target: Glucagon(3-29) (Homo sapiens (Human)) (UniProt P01275)
[4] = target: Gln^3-Aβ(3-11)a, Gln^3-amyloid β-peptide(3-11)a (Artificial Sequence)

kcat/KM [1]: 383000 M⁻¹ s⁻¹
kcat/KM [2]: 449000 M⁻¹ s⁻¹
kcat/KM [3]: 526000 M⁻¹ s⁻¹
kcat/KM [4]: 267000 M⁻¹ s⁻¹
Substance: recombinant human QC (glutaminyl cyclase) (from UniProt Q16769) (enzyme)
